Assay [1] relates to human umbilical endothelial cells (HUVEC). As to the kind of experiment: Endothelial tube assay. Type of assay: cell-based. Particulars: supernatant from plasmid-transfected 293T cells; FIGS. 2A-2D. The protocol:
Endothelial tube assay: Matrigel (Collaborative Biomolecules, Bedford, Mass.) was added (50 μl) to each well of a 96-well plate and allowed to polymerize. A suspension of 5,000 human umbilical endothelial cells (HUVEC) in EGM-2 medium without antibiotic was passed into each well coated with matrigel. The cells were treated with supernatants collected from different plasmid (endostatin, endostatin-CD, and CD) transfected 293T cells. All assays were performed in triplicate. Cell were incubated for 12-24 hr at 37° C. and viewed using a microscope. The cells were then photographed. Five fields were viewed, and tubes were counted and averaged.

The next assay concerns HUVECs. The assay can be described thus: Migration assay (VEGF-induced chemotaxis, Boyden chamber). Type of assay: cell-based, human. Conditions: supernatant from plasmid-transfected 293T cells; 10 ng/ml VEGF as chemotactant; FIGS. 2E-2H. As for the experimental part:
After trypsinizing, washing, and diluting cells in M199 medium containing 0.5% FBS, 10,000 cells were seeded on the upper chamber wells, together with supernatant collected from 293T transfected with different plasmid (endostatin, endostatin-CD, and CD). M199 medium containing 2% FBS plus 10 ng/ml VEGF was placed in the lower chamber as a chemotactant. The cell-containing compartments were separated from the chemotactant with polycarbonate filter of 8 um pore size. The chamber was incubated at 37° C. for 6-8 hr. After discarding the non-migrated cells and washing the upper wells with PBS, the filters were scraped with a plastic blade, fixed in 4% formaldehyde in PBS, stained with DAPI fluorescent stain and placed on a glass slide. By using a fluorescent high power field, several independent homogenous images were recorded. Five fields were viewed, and […] were counted and averaged. All assays were performed in triplicate.

The values below come from US7906628B2, “Targeting proteins to deliver therapeutic or diagnostic reagents” (The Board of Regents, The University of Texas System, priority 2002, dated 2011).

B1: endostatin: endogenous angiogenesis inhibitor, 18 KD, used as comparator (protein, listed as Homo sapiens)
chain: IVNLKDELLFPSWEALFSGSEGPLKPGARIFSFDGKDVLRHPTRPQKSVWHGSDPNGRRLTESYCETWRTEAPSATGQASSLLGGRLLGQSAASSHHAYIVL
Consider B1, for which, in assay [1], the “HUVEC cell tube formation” value is recorded as “inhibitory effect”. Also, in the assay with HUVECs, the HUVEC cell migration entry is “inhibitory effect”.
